B1: IdeE combinatorial mutant E97D_del18 (protein)
chain: ITSVWTKGVTPLTPEQFRYNNEDVIHAPYLAHQGWYDITKAFDGKDNLLCGAATAGNMLHWWFDQNKTEIEAYLSKHPDKQKIIFNNQELFDLKAAIDTKDSQTNSQLFNYFRDKAFPNLSARQLGVMPDLVLDMFINGYYLNVFKTQSTDVNRPYQDKDKRGGIFDAVFTRGDQTTLLTARHDLKNKGLNDISTIIKQELTEGRALALSHTYANVSISHVINLWGADFNAEGNLEAIYVTDSDANASIGMKKYFVGINAHRHVAISAKKIEGENIGAQVLGLFTLSSGKDIWQKLSHHHHHH

Legend:
[1] = target: trastuzumab; assay: cell-based or functional assay
[2] = target: IgG in the sera of mice
[3] = target: IgG in the sera of monkeys
[4] = target: IgG in the sera of pigs
[5] = target: IgG in the sera of rabbits
[6] = target: IgG in the sera of rats
[7] = target: IgG1 in the sera of humans
[8] = target: dog IgG
[9] = target: human IVIg (an intravenous human immunoglobulin)
[10] = target: rabbit IgG (rabbit polyclonal IgG antibody 1 and 2)

Row | Molecule | Fold of activity relative to wild-type (ELISA-based human IgG1 cleavage) [1] [fold] | activity of cleaving human IgG1 relative to wild-type IdeE (SDS-PAGE) [1] [fold] | also measured
1 | IdeE mutant E97D (enzyme) | 2 | 2 | –
2 | IdeE mutant A59V (enzyme) | 2.68 | 2 | –
3 | IdeE mutant T8D (enzyme) | 2.21 | 2 | –
4 | IdeE mutant T24G (enzyme) | 2.09 | – | –
5 | IdeE mutant T8E (enzyme) | 2.09 | – | –
6 | IdeE mutant T8W (enzyme) | 2.58 | 2 | –
7 | IdeE mutant T8Y (enzyme) | 2.3 | – | –
8 | IdeE mutant R280K (enzyme) | 2.2 | – | –
9 | IdeE mutant R280H (enzyme) | 2.3 | 2 | –
10 | IdeE mutant A10R (enzyme) | 2.2 | – | –
11 | IdeE C-terminal truncated mutant WT_delC5 (enzyme) | – | – | cleavage activity on human IgG1 relative to wild-type IdeE (SDS-PAGE) [1]: > 2 fold
12 | IdeE mutant T24S (enzyme) | 2.18 | – | –
13 | IdeE C-terminal truncated mutant WT_delC10 (enzyme) | – | – | cleavage activity on human IgG1 relative to wild-type IdeE (SDS-PAGE) [1]: > 2 fold
14 | IdeE mutant T24A (enzyme) | 2.23 | 2 | –
15 | IdeE mutant A10K (enzyme) | 1.99 | – | –
16 | IdeE mutant A59I (enzyme) | 2.31 | – | –
17 | IdeE mutant A59L (enzyme) | 2.41 | 2 | –
18 | B1 | – | – | cleavage in mouse serum in vitro (SDS-PAGE, 25 kD Fc fragment) [2]: has very low or no activity of cleaving IgG1 in the sera of mice; cleavage of serum IgG of different species (SDS-PAGE) [2]: IgG in the sera of rats and mice was nearly uncleaved; cleavage of serum IgG of different species (SDS-PAGE) [3]: E97D_del18 can effectively cleave IgG in the sera of rabbits, dogs and monkeys; cleavage of serum IgG of different species (SDS-PAGE) [4]: IgG in the sera of pigs was cleaved more effectively; cleavage of serum IgG of different species (SDS-PAGE) [5]: IgG in the sera of rabbits was cleaved most effectively; cleavage of serum IgG of different species (SDS-PAGE) [6]: IgG in the sera of rats and mice was nearly uncleaved; cleavage in human serum in vitro (SDS-PAGE, 25 kD Fc fragment) [7]: E97D_del18 can effectively and specifically cleave IgG1 in the sera of humans; cleavage of immunoglobulins of different species (SDS-PAGE) [8]: E97D_del18 can effectively cleave dog IgG; cleavage of serum IgG of different species (SDS-PAGE) [8]: E97D_del18 can effectively cleave IgG in the sera of rabbits, dogs and monkeys; cleavage of human IVIg in mouse serum and plasma in vitro (SDS-PAGE) [9]: E97D_del18 can effectively cleave human IVIg in both the sera and plasmas of mice; cleavage of immunoglobulins of different species (SDS-PAGE) [10]: E97D_del18 can effectively cleave ... rabbit IgG

Reference: US20230364207A1
